Format in all cases: biochemical
Assay [1] in a line: Enzyme dependent formation of the GSH adduct with T-2 toxin. The conditions noted are these: FIG. 11; pCA02 empty vector and no protein as controls.
Assay [2] can be described thus: Enzyme dependent formation of the GSH adduct with trichodermin. As to conditions: FIG. 14; pCA02 empty vector and no protein as controls.
The nature of assay [3]: Enzyme dependent formation of the GSH adduct with roridin A. The conditions noted are these: FIG. 17; pCA02 empty vector and no protein as controls.
Assay [4] can be described thus: Enzymatic DON-GSH conjugation assay (LC-HRMS, Orbitrap). As to conditions: 100 ppm DON, 5 mM GSH, pH6, within 24 hours; for formation of the Michael adduct of DON (MH1): against nonenzymatic background; for formation of the epoxide adduct of DON (MH2, DON-13-GSH): result in words.

“Also recorded” adds a separate entry of the source.

Data on two molecules can be found in patent US12698483B2 (priority 2019, dated 2026).

B1: TrGST-C02 (protein, listed as Triticum aestivum)
chain: MAGGDDLKLLGAWASPFVTRVKLALNFKGLSFEDVEEDLSNKSELLLSSNPVHKKVPVLVHNGKPICESVIIVQYIDEAFAGIGPALLPSDPYERAIARFWAAYVDDKLVAPWVQSLRAKTEEEKSEGLKQTFAAVETLEGALRECSKGEGYFGGETVGLVDISLGSLLSWLNATEVMSGTKIFDPVKTPLLAAWMERFSKLDAAKAALPEVDRVVEFAKKRQAQAAAAAAASETK
Turning to B1, the “formation of the GSH adduct with T-2 toxin (T-2-GSH_MH)” value in assay [1] is “Enzyme dependent formation of the GSH adduct”. Also, the “formation of the GSH adduct with trichodermin (Trichodermin-GSH_MH)” value in assay [2] is listed as “Enzyme dependent formation of the GSH adduct”. Moreover, the “formation of the GSH adduct with roridin A (Roridin-GSH_MH)” value in assay [3] is recorded as “Enzyme dependent formation of the GSH adduct”. Moreover, in assay [4], the “formation of the Michael adduct of DON (MH1)” value is recorded as “clearly enhance Michael adduct formation; also recorded: clearly catalyze” and the “formation of the epoxide adduct of DON (MH2, DON-13-GSH)” value is on record as “clearly catalyze the formation of the epoxide-adduct; also recorded: catalyzed”.

B2: TrGST-C12 (protein, listed as Triticum aestivum)
chain: MAGGDDLKLLGAWASPFVARVKLALSFKGLSFEDVEEDLSNKSELLLSSNPVHKKVPVLVHNGKPICESMIIVQYIDEAFLVGPSLLPSDPYKRAIARFWAAYIDDKLVTPWVQSLRAKTEEEKSEGVKQTFAAVETLEGALRECSKGEGYFGGETVGLVDISLGSLLSWLIATEVMSGTKIFDPVKTPLLAAWMGRFSELDAAKAALPEVDRVVEFAKKRQAQADAAAAASETK
B2: in assay [1], the “formation of the GSH adduct with T-2 toxin (T-2-GSH_MH)” value is “Enzyme dependent formation of the GSH adduct”. Further, the “formation of the GSH adduct with trichodermin (Trichodermin-GSH_MH)” value in assay [2] is recorded as “Enzyme dependent formation of the GSH adduct”. For the same molecule, the “formation of the GSH adduct with roridin A (Roridin-GSH_MH)” value in assay [3] is recorded as “Enzyme dependent formation of the GSH adduct”. For the same molecule, in assay [4], the “formation of the Michael adduct of DON (MH1)” value is reported as “clearly enhance Michael adduct formation; also recorded: clearly catalyze” and the “formation of the epoxide adduct of DON (MH2, DON-13-GSH)” value is “clearly catalyze the formation of the epoxide-adduct; also recorded: catalyzed”.
